Reference: the supplement of paper PMC10065799, “High-throughput profiling of sequence recognition by tyrosine kinases and SH2 domains using bacterial peptide display” (eLife, 2023)

Legend:
AncSZ = assay: phosphorylation enrichment, bacterial display (enrichment ratio); higher = better substrate or ligand; peptides without Tyr show the background
EPHB1 = EPHB1 (UniProt P54762); assay: as above
EPHB2 = EPHB2 (UniProt P29323); assay: as above
FGFR1 = FGFR1 (UniProt P11362); assay: as above
FGFR3 = FGFR3 (UniProt P22607); assay: as above
Sequence of FGFR3 (P22607 whole entry, looked up): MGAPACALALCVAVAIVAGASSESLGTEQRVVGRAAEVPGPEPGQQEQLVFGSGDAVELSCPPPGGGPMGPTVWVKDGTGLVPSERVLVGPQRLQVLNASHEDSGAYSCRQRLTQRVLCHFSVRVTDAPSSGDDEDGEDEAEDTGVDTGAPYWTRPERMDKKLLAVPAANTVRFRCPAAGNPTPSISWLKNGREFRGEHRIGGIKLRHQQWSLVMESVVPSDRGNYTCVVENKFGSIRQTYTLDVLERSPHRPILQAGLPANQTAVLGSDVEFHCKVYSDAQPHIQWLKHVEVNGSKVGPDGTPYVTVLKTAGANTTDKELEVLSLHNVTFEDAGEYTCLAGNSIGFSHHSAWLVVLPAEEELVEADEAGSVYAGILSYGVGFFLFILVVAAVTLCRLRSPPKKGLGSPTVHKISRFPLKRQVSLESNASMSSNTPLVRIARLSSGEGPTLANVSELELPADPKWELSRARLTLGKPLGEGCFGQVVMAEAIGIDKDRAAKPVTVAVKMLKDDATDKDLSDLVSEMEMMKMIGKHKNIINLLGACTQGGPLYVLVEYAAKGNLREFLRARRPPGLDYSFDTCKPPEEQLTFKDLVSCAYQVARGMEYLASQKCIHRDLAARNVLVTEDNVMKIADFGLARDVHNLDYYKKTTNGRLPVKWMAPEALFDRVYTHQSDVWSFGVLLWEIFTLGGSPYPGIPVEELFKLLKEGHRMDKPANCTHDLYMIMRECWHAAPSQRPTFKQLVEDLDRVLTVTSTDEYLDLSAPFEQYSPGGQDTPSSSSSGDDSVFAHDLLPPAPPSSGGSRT

Fer (mouse) = assay: as above
Fes = Fes (UniProt P07332); assay: as above
Fyn = Fyn (UniProt P06241); assay: as above
Sequence of Fyn (P06241 whole entry, looked up): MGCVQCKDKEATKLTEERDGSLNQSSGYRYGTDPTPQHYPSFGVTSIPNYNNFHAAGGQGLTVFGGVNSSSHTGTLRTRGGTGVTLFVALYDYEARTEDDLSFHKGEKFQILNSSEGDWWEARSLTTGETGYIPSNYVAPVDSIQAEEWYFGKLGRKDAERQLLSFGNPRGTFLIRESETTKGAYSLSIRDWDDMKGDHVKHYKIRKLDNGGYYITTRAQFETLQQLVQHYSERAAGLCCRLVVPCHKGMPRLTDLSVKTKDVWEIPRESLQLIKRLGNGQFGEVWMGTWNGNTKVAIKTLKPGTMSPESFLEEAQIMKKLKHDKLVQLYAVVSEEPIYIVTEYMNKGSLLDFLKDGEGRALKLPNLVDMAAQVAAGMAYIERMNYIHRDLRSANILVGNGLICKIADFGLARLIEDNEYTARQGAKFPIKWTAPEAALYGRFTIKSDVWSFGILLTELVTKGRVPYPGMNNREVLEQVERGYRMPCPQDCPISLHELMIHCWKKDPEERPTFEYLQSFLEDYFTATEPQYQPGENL

Hck = Hck (UniProt P08631); assay: as above
Sequence of Hck (P08631 whole entry, looked up): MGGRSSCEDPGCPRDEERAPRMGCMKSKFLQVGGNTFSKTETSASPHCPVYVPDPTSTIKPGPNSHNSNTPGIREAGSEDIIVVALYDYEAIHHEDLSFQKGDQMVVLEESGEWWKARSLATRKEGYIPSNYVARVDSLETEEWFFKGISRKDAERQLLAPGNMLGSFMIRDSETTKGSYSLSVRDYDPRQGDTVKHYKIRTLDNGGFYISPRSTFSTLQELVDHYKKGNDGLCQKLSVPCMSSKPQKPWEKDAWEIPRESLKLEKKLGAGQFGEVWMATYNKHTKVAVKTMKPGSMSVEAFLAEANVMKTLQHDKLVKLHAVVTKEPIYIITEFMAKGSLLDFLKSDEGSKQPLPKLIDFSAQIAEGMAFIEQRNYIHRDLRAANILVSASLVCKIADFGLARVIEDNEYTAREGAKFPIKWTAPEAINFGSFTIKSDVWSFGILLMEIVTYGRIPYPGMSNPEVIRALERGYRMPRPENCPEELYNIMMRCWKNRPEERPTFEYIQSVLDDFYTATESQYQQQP

Jak2 = Jak2 (UniProt O60674); assay: as above
MERTK = MERTK (UniProt Q12866); assay: as above
Sequence of MERTK (Q12866 whole entry, looked up): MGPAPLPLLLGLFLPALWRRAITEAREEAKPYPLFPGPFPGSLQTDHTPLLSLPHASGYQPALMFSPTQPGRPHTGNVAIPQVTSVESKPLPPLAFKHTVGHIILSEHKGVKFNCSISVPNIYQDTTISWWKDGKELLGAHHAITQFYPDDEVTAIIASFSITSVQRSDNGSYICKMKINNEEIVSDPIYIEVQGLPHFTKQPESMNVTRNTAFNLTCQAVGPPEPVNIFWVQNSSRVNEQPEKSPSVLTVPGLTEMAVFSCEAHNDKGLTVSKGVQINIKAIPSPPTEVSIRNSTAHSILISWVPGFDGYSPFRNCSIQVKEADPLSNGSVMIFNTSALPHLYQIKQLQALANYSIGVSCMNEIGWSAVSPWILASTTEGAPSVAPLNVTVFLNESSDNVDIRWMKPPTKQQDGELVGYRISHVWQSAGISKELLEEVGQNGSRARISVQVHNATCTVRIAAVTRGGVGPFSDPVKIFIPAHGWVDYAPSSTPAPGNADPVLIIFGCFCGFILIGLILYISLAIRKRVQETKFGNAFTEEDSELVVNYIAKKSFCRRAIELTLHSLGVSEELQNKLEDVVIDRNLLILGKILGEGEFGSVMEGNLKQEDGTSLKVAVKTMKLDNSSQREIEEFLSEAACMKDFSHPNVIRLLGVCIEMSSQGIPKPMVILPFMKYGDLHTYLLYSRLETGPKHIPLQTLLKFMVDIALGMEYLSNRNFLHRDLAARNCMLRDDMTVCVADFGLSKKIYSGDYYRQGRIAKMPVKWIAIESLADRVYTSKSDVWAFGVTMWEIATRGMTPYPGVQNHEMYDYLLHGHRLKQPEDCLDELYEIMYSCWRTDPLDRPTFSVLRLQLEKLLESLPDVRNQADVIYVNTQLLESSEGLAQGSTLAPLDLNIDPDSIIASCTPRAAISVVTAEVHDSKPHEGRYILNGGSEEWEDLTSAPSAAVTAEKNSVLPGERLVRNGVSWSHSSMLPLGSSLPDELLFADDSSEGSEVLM

c-Abl (mouse) = assay: as above
c-Src = assay: as above
Grb2 SH2 = Grb2 SH2 (UniProt P62993); assay: SH2 binding enrichment of the phosphorylated peptide, bacterial display (enrichment ratio); higher = better substrate or ligand; peptides without Tyr show the background
Sequence of Grb2 SH2 (P62993 whole entry, looked up): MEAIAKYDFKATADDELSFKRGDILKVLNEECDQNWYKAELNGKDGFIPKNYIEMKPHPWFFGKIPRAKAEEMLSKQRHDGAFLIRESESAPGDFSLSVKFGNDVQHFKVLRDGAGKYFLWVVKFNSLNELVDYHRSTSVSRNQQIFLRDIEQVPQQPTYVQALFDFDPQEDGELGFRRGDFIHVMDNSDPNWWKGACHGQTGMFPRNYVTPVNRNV

SHP2-C SH2 = assay: as above
c-Src SH2 = assay: as above
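For SH2 binding enrichment of the phosphorylated peptide, bacterial display in this document: peptide library displayed on the E. coli surface as eCPX fusions, selected cells deep-sequenced, score is each peptide's frequency after selection divided by its frequency in the input.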
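For phosphorylation enrichment, bacterial display in this document: 11-residue human phosphosite peptides and single-mutation variants displayed on the E. coli surface, counted by deep sequencing, each peptide's frequency after selection divided by its frequency in the unselected input library; frequency after pTyr selection over input frequency; kinase dosed for 20-30% of maximal phosphorylation in three min.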

Sequence of EPHB1 (P54762 whole entry, looked up): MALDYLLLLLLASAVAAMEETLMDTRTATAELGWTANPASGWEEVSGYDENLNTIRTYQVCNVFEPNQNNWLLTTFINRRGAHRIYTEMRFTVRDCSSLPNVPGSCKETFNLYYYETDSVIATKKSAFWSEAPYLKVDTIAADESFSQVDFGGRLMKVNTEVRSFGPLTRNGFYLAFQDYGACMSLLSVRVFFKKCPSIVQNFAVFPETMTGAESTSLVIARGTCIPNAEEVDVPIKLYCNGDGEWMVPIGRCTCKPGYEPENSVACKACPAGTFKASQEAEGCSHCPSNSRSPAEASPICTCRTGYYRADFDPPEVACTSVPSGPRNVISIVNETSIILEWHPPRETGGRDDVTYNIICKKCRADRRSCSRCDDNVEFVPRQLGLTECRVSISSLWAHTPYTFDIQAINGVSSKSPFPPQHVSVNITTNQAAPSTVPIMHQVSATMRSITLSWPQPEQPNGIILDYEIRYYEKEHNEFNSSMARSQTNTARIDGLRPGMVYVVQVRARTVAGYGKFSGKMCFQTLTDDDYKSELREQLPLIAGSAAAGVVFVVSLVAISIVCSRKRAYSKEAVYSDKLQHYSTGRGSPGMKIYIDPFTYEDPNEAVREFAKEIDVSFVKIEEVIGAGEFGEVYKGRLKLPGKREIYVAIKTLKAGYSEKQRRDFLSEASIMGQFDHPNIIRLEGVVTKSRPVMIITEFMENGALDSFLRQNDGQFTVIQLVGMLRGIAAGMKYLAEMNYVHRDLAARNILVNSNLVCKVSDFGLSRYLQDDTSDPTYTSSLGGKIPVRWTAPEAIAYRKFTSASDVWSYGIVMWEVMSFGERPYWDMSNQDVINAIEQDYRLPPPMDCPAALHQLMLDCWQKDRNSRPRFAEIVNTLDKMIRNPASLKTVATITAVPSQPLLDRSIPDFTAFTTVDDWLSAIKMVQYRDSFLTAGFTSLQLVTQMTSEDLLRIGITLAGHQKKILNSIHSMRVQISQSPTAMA
Sequence of FGFR1 (P11362 whole entry, looked up): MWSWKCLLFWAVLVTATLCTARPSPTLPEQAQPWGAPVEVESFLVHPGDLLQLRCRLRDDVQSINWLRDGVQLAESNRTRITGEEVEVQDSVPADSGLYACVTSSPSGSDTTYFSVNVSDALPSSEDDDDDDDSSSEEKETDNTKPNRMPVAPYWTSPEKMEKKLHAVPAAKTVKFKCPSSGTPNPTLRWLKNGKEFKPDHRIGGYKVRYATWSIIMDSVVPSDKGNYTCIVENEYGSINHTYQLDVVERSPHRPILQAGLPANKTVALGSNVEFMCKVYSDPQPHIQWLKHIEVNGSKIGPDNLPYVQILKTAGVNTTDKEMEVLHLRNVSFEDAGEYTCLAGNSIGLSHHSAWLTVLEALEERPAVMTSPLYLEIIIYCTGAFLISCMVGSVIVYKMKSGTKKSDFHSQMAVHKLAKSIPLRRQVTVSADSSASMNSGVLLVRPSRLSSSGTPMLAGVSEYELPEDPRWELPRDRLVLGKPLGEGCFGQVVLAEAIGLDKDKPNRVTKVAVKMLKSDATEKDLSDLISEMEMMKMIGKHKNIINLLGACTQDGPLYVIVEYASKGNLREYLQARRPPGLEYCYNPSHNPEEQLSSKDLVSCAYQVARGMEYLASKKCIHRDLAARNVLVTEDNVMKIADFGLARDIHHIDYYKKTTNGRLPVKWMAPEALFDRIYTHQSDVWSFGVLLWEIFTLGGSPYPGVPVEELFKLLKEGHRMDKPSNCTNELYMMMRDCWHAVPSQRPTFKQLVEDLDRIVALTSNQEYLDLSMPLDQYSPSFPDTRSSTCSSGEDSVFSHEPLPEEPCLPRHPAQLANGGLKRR

Row | Sequence | phosphorylation enrichment (AncSZ) | phosphorylation enrichment (EPHB1) | phosphorylation enrichment (EPHB2) | phosphorylation enrichment (FGFR1) | phosphorylation enrichment (FGFR3) | phosphorylation enrichment (Fer (mouse)) | phosphorylation enrichment (Fes) | phosphorylation enrichment (Fyn) | phosphorylation enrichment (Hck) | phosphorylation enrichment (Jak2) | phosphorylation enrichment (MERTK) | phosphorylation enrichment (c-Abl (mouse)) | phosphorylation enrichment (c-Src) | SH2 binding enrichment (Grb2 SH2) | SH2 binding enrichment (SHP2-C SH2) | SH2 binding enrichment (c-Src SH2)
1 | KILAKYLLETS [NAMPT_Y175] | 0.66 | 0.431 | 0.412 | 0.353 | 0.421 | 0.411 | 0.664 | 0.35 | 0.368 | 0.645 | 0.385 | 0.571 | 0.395 | 0.766 | 0.614 | 0.513
2 | KILPEYLSNWT [AIFM1_Y347] | 0.995 | 0.428 | 0.513 | 0.543 | 0.673 | 0.424 | 0.915 | 0.463 | 0.481 | 0.983 | 0.509 | 0.677 | 0.503 | 1.03 | 0.873 | 0.691
3 | KKHIPYKEHKS [CSNK1G1_Y205_R206K] | 1.53 | 1.15 | 0.951 | 0.942 | 2.2 | 1.2 | 2.1 | 0.597 | 0.842 | 3.96 | 0.987 | 3.19 | 1.03 | 1.89 | 2.23 | 1.82
4 | KKKKQYKDKYL [CASK_Y708] | 0.614 | 0.53 | 0.393 | 0.506 | 0.471 | 0.587 | 0.534 | 0.454 | 0.548 | 0.475 | 0.631 | 0.837 | 0.728 | 0.872 | 0.244 | 0.275
5 | KKMKRYHVGKV [HARS2_Y151] | 0.466 | 0.492 | 0.313 | 0.298 | 0.486 | 0.293 | 0.514 | 0.349 | 0.341 | 0.554 | 0.43 | 0.482 | 0.45 | 1.14 | 1.36 | 1.12
6 | KLFFHYNPKLC [INSR_Y457] | 1.25 | 0.631 | 0.568 | 0.534 | 0.777 | 0.566 | 1.41 | 0.384 | 0.562 | 1.47 | 0.383 | 0.855 | 0.428 | 1.12 | 1.18 | 0.712
7 | KLGDVYVNVAF [PGK1_Y161_D164V] | 1.13 | 0.801 | 0.632 | 1.01 | 1.01 | 0.661 | 1.08 | 0.645 | 0.706 | 0.965 | 0.471 | 0.727 | 0.584 | 1.16 | 0.845 | 0.636
8 | KLIMEYLPFGS [JAK2_Y931_YF] | 0.868 | 0.49 | 0.571 | 0.468 | 0.595 | 0.456 | 1.09 | 0.401 | 0.424 | 0.965 | 0.372 | 0.734 | 0.558 | 1 | 0.788 | 0.714
9 | KLPFLYDDPFS [GPX2_Y127_P126L_YF] | 1.07 | 3.99 | 4.62 | 0.589 | 0.62 | 1.6 | 0.995 | 0.672 | 1.5 | 1.03 | 2.66 | 0.736 | 0.641 | 0.846 | 0.841 | 1.23
10 | KLPFPYDDPFS [GPX2_Y127_YF] | 1.05 | 0.587 | 0.773 | 0.63 | 0.755 | 0.772 | 1.11 | 0.545 | 0.663 | 0.9 | 0.525 | 1.16 | 0.831 | 1.12 | 0.761 | 3.9
11 | KNKNRSKNILP [PTPN11_Y279_Y279S] | 0.732 | 0.686 | 0.568 | 0.531 | 0.627 | 0.486 | 0.749 | 0.621 | 0.561 | 0.632 | 0.561 | 0.771 | 0.564 | 0.777 | 0.39 | 0.374
12 | KNKNRYKNILP [PTPN11_Y279] | 0.78 | 0.601 | 0.665 | 0.598 | 0.889 | 0.703 | 1.03 | 0.644 | 0.851 | 0.984 | 0.799 | 0.877 | 0.941 | 1.05 | 0.888 | 0.637
13 | KPEKTYGLRKE [CEP43_Y267] | 0.595 | 0.433 | 0.409 | 0.344 | 0.614 | 0.395 | 0.766 | 0.46 | 0.503 | 0.683 | 0.441 | 0.782 | 0.43 | 1.1 | 0.999 | 0.823
14 | KPNMNYDKLSW [FLI1_Y332_R337W] | 0.751 | 0.644 | 0.893 | 0.428 | 0.59 | 0.555 | 0.741 | 0.486 | 0.661 | 0.746 | 0.481 | 0.41 | 0.446 | 0.967 | 1.5 | 10.2
15 | KPVEEYANCHL [TF_Y593] | 0.96 | 0.623 | 0.549 | 0.61 | 0.65 | 0.481 | 1.11 | 0.472 | 0.613 | 0.915 | 0.544 | 0.755 | 0.547 | 1.1 | 0.758 | 1.25
16 | KQLFAYKMLMA [TMC2_Y209_YF] | 0.858 | 0.562 | 0.594 | 0.548 | 0.677 | 0.445 | 0.926 | 0.475 | 0.566 | 0.773 | 0.386 | 0.711 | 0.439 | 1.25 | 1.07 | 1.01
17 | KRLAVYQAGAR [APOE_Y180] | 0.495 | 0.316 | 0.399 | 0.403 | 0.365 | 0.333 | 0.504 | 0.405 | 0.335 | 0.464 | 0.346 | 0.398 | 0.378 | 1.1 | 1.05 | 0.879

Row | Sequence | phosphorylation enrichment (AncSZ) | phosphorylation enrichment (EPHB1) | phosphorylation enrichment (EPHB2) | phosphorylation enrichment (FGFR1) | phosphorylation enrichment (FGFR3) | phosphorylation enrichment (Fer (mouse)) | phosphorylation enrichment (Fes) | phosphorylation enrichment (Fyn) | phosphorylation enrichment (Hck) | phosphorylation enrichment (Jak2) | phosphorylation enrichment (MERTK) | phosphorylation enrichment (c-Abl (mouse)) | phosphorylation enrichment (c-Src) | SH2 binding enrichment (Grb2 SH2) | SH2 binding enrichment (SHP2-C SH2) | SH2 binding enrichment (c-Src SH2)
18 | KRLWDYGMSSS [F8_Y1728_E1723K] | 0.592 | 0.429 | 0.461 | 0.399 | 0.511 | 0.339 | 0.706 | 0.341 | 0.337 | 0.666 | 0.359 | 0.536 | 0.394 | 0.971 | 0.57 | 0.457
19 | KSDVMYTDWKK [ORM1_Y175_V174M] | 0.738 | 0.488 | 0.454 | 0.416 | 0.682 | 0.463 | 0.842 | 0.485 | 2.03 | 0.764 | 0.562 | 0.689 | 0.616 | 0.771 | 0.626 | 0.47
20 | KSEKVYTRHGV [FLOT1_Y56] | 0.502 | 0.354 | 0.339 | 0.439 | 0.341 | 0.417 | 0.527 | 0.254 | 0.346 | 0.444 | 0.427 | 0.401 | 0.34 | 0.866 | 0.824 | 0.579
21 | KSPDSYQKILL [ATM_Y1415] | 0.55 | 0.397 | 0.437 | 0.488 | 0.451 | 0.393 | 0.801 | 0.372 | 0.395 | 0.712 | 0.437 | 0.569 | 0.429 | 0.805 | 0.631 | 1.24
22 | KSSDVYVSFDC [SORL1_Y136_Y141C_YF] | 1.44 | 1.41 | 0.802 | 1.92 | 1.61 | 0.733 | 1.18 | 5.22 | 2.16 | 0.889 | 0.803 | 0.786 | 3.34 | 1.15 | 0.782 | 0.79
23 | KSVSQYLEMDK [CAGE1_Y438] | 0.748 | 0.422 | 0.406 | 0.46 | 0.537 | 0.424 | 0.803 | 0.414 | 0.391 | 0.907 | 0.38 | 1.05 | 0.406 | 0.873 | 0.528 | 1.9
24 | KTGNIYRTEFG [MRPL3_Y265_M261T_YF] | 0.585 | 0.422 | 0.377 | 0.517 | 0.491 | 0.35 | 0.542 | 0.437 | 0.435 | 0.468 | 0.413 | 0.457 | 0.349 | 1.15 | 0.871 | 0.547
25 | KTVQDYLEKFF [MMP8_Y36_YF] | 1.14 | 0.504 | 0.602 | 0.643 | 0.692 | 0.485 | 1.28 | 0.519 | 0.502 | 0.986 | 0.514 | 0.874 | 0.446 | 0.953 | 0.719 | 0.64
26 | KVDKEYEVGVR [GHR_Y226_R229G] | 0.752 | 0.434 | 0.48 | 0.472 | 0.493 | 0.398 | 0.796 | 0.401 | 0.452 | 0.553 | 0.41 | 0.658 | 0.414 | 0.851 | 0.764 | 0.534
27 | KVGNEYITKGQ [MYH7_Y410_V411I] | 0.593 | 0.358 | 0.414 | 0.444 | 0.443 | 0.315 | 0.682 | 0.376 | 0.399 | 0.561 | 0.356 | 0.564 | 0.403 | 0.896 | 0.495 | 0.43
28 | KVGNEYVTKGQ [MYH7_Y410] | 0.492 | 0.303 | 0.495 | 0.393 | 0.422 | 0.269 | 0.578 | 0.3 | 0.334 | 0.471 | 0.332 | 0.469 | 0.339 | 0.89 | 0.676 | 0.471
29 | KVKGEYDMTVP [AHNAK_Y964] | 0.669 | 0.491 | 0.36 | 0.469 | 0.607 | 0.637 | 0.744 | 0.434 | 0.443 | 0.543 | 0.463 | 0.372 | 0.414 | 0.756 | 0.692 | 0.499
30 | KVKPIYFRTQG [AR_Y916_H918R] | 0.701 | 0.356 | 0.396 | 0.475 | 0.448 | 0.477 | 0.644 | 0.404 | 0.495 | 0.491 | 0.401 | 0.626 | 0.454 | 1.63 | 1.76 | 1.51
31 | KWHREYNFKYV [RICTOR_Y835_S837F] | 1.04 | 0.454 | 0.392 | 0.358 | 0.564 | 0.357 | 0.786 | 0.394 | 0.397 | 0.693 | 0.376 | 0.528 | 0.38 | 1.49 | 1.35 | 1.22
32 | KYVKMYDNHQL [MYO9A_Y203] | 0.552 | 0.481 | 0.448 | 0.557 | 0.432 | 0.441 | 0.726 | 0.46 | 0.489 | 0.51 | 0.544 | 0.696 | 0.418 | 0.808 | 0.76 | 1.3
33 | LAAAGYDVKKN [H1-3_Y72_E75K] | 0.414 | 0.355 | 0.249 | 0.383 | 0.331 | 0.305 | 0.591 | 0.319 | 0.288 | 0.381 | 0.28 | 0.414 | 0.324 | 0.66 | 0.734 | 0.323
